Measurements published in US5861155.
Several values for one entry are separate records, joined by “and”; a condition that tells them apart may be missing. Equal values may be shown once.

B1: TM27 (antibody, V domains shown)
VH: QVQLQESGPGLVRPSQTLSLTCTVSGFSLTAYGVNWVRQPPGRGLEWLGMIWGDGNTDYNSALKSRVTMLKDTSKNQFSLRLSSVTAADTAVYYCARDRVTATLYAMDYWGQGSLVTVSS
VL: DIQMTQSPSSLSASVGDRVTITCSASQGISNYLNWYQQTPGKAPKLLIYYTSSLHSGVPSRFSGSGSGTDYTFTISSLQPEDIATYYCQQYSKLPRTFGQGTKLQIT
B2: TM27I (antibody, V domains shown)
VH: QVQLQESGPGLVRPSQTLSLTCTVSGFSLTAYGVNWVRQPPGRGLEWIGMIWGDGNTDYNSALKSRVTMLKDTSKNQFSLRLSSVTAADTAVYYCARDRVTATLYAMDYWGQGSLVTVSS
VL: DIQMTQSPSSLSASVGDRVTITCSASQGISNYLNWYQQTPGKAPKLLIYYTSSLHSGVPSRFSGSGSGTDYTFTISSLQPEDIATYYCQQYSKLPRTFGQGTKLQIT

Tests used:
[1] = biological target: human T cell receptor with β chain variable region Vβ 5.2, on HPB-ALL cells (human); experiment: flow cytometry on HPB cells, TM27 purified from CHO cells
[2] = biological target: human T cell receptor with β chain variable region Vβ 5.2, on HPB-ALL cells (human); experiment: flow cytometry on HPB cells, TM27 purified from NSO cells
[3] = biological target: human T cell receptor with β chain variable region Vβ 5.2, on HPB-ALL cells (human); experiment: 4H11-FITC competition assay, competitor label 4H11-FITC (cells not stated in the example)

Binder | mean channel fluorescence [1] | mean channel fluorescence [2] | value in the 4H11-FITC competition assay, fold against TM23 [3]
B1 | 283 and 322 | 507 | < 3 fold
B2 |  |  | < 3 fold
